Measured values reported in the supplement of paper PMC11316812.
± gives the standard deviation of the averaged measurements.

Columns and labels:
MCF7 = assay: percentage of EdU-negative (G0-arrested) nuclei per well, 72 h; higher = more G0 arrest; conditions: reference: sequence is the full UniProt precursor, the tested protein was the secreted form or ectodomain
hTERT-HMEC = assay: as above; conditions: reference: sequence is the full UniProt precursor, the tested protein was the secreted form or ectodomain
[1] = protein concentration 0.0225 µM
[2] = protein concentration 0.0125 µM
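Note: secreted proteins added to cultured cells, EdU pulse at the end, nuclei found by Hoechst imaging, EdU status from nuclear versus surrounding ring intensity ratio, PBS as neutral control.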

Sequence | percentage of EdU-negative (MCF7; [1]) [%] | percentage of EdU-negative (MCF7; protein concentration 0.225 µM) [%] | percentage of EdU-negative (hTERT-HMEC; [1]) [%] | percentage of EdU-negative (hTERT-HMEC; protein concentration 0.225 µM) [%] | further results
MPRRGYSKPGSWGSFWAMLTLVGLVTHAAQRADVGGEAAGTSINHSQAVLQRLQELLRQGNASDVVLRVQAAGTDEVRVFHAHRLLLGLHSELFLELLSNQSEAVLQEPQDCAAVFDKFIRYLYCGELTVLLTQAIPLHRLATKYGVSSLQRGVADYMRAHLAGGAGPAVGWYHYAVGTGDEALRESCLQFLAWNLSAVAASTEWGAVSPELLWQLLQRSDLVLQDELELFHALEAWLGRARPPPAVAERALRAIRYPMIPPAQLFQLQARSAALARHGPAVADLLLQAYQFHAASPLHYAKFFDVNGSAFLPRNYLAPAWGAPWVINNPARDDRSTSFQTQLGPSGHDAGRRVTWNVLFSPRWLPVSLRPVYADAAGTALPAARPEDGRPRLVVTPASSGGDAAGVSFQKTVLVGARQQGRLLVRHAYSFHQSSEEAGDFLAHADLQRRNSEYLVENALHLHLIVKPVYHTLIRTPK [A6NE02] | – | – | – | – | percentage of EdU-negative (MCF7; protein concentration 0.006 µM): 26.7 ± 0.63%; percentage of EdU-negative (MCF7; protein concentration 0.06 µM): 26.1 ± 1.3%; percentage of EdU-negative (hTERT-HMEC; protein concentration 0.006 µM): 5.11 ± 0.82%; percentage of EdU-negative (hTERT-HMEC; protein concentration 0.06 µM): 10 ± 0.96%
MPRRSLHAAAVLLLVILKEQPSSPAPVNGSKWTYFGPDGENSWSKKYPSCGGLLQSPIDLHSDILQYDASLTPLEFQGYNLSANKQFLLTNNGHSVKLNLPSDMHIQGLQSRYSATQLHLHWGNPNDPHGSEHTVSGQHFAAELHIVHYNSDLYPDASTASNKSEGLAVLAVLIEMGSFNPSYDKIFSHLQHVKYKGQEAFVPGFNIEELLPERTAEYYRYRGSLTTPPCNPTVLWTVFRNPVQISQEQLLALETALYCTHMDDPSPREMINNFRQVQKFDERLVYTSFSQVQVCTAAGLSLGIILSLALAGILGICIVVVVSIWLFRRKSIKKGDNKGVIYKPATKMETEAHA | 26 ± 0.83 | 25.7 ± 0.64 | 5.44 ± 1.7 | 5.5 ± 1.2 | –
MPRSCCSRSGALLLALLLQASMEVRGWCLESSQCQDLTTESNLLECIRACKPDLSAETPMFPGNGDEQPLTENPRKYVMGHFRWDRFGRRNSSSSGSSGAGQKREDVSAGEDCGPLPEGGPEPRSDGAKPGPREGKRSYSMEHFRWGKPVGKKRRPVKVYPNGAEDESAEAFPLEFKRELTGQRLREGDGPDGPADDGAGAQADLEHSLLVAAEKKDEGPYRMEHFRWGSPPKDKRYGGFMTSEKSQTPLVTLFKNAIIKNAYKKGE | – | – | – | – | percentage of EdU-negative (MCF7; [2]): 24.3 ± 6.1%; percentage of EdU-negative (MCF7; protein concentration 0.125 µM): 24.787 ± 0.0019%; percentage of EdU-negative (hTERT-HMEC; [2]): 4.65 ± 0.64%; percentage of EdU-negative (hTERT-HMEC; protein concentration 0.125 µM): 8.66 ± 0.81%
MPRYGASLRQSCPRSGREQGQDGTAGAPGLLWMGLVLALALALALALALSDSRVLWAPAEAHPLSPQGHPARLHRIVPRLRDVFGWGNLTCPICKGLFTAINLGLKKEPNVARVGSVAIKLCNLLKIAPPAVCQSIVHLFEDDMVEVWRRSVLSPSEACGLLLGSTCGHWDIFSSWNISLPTVPKPPPKPPSPPAPGAPVSRILFLTDLHWDHDYLEGTDPDCADPLCCRRGSGLPPASRPGAGYWGEYSKCDLPLRTLESLLSGLGPAGPFDMVYWTGDIPAHDVWHQTRQDQLRALTTVTALVRKFLGPVPVYPAVGNHESTPVNSFPPPFIEGNHSSRWLYEAMAKAWEPWLPAEALRTLRIGGFYALSPYPGLRLISLNMNFCSRENFWLLINSTDPAGQLQWLVGELQAAEDRGDKVHIIGHIPPGHCLKSWSWNYYRIVARYENTLAAQFFGHTHVDEFEVFYDEETLSRPLAVAFLAPSATTYIGLNPGYRVYQIDGNYSGSSHVVLDHETYILNLTQANIPGAIPHWQLLYRARETYGLPNTLPTAWHNLVYRMRGDMQLFQTFWFLYHKGHPPSEPCGTPCRLATLCAQLSARADSPALCRHLMPDGSLPEAQSLWPRPLFC | 24.3 ± 1.8 | 24.4 ± 1.7 | 4.79 ± 0.51 | 5.82 ± 1.2 | –
MPRYVPLLLLLLLLRCSERGGGVNFGEKDAKVPGTWRDGVRVPGEGASWDSDRASPERRYGIVGLSQSISTKHPETSPKDSRIRENDVTADGRTTEDHITADPGTTEDSVTADPGTTEDNVTVDPGTTEGSVTADPATTKDYVSADPGTTKDSVTADPGTTENFVTADPGTTKDSITADPRTTEDSVTADPGTTKHSITVDPGTTEDSVTADPGTTKHSITADPGTTEDSVTADPGTTEDETTKHGDTHLL [E2RYF7] | 23.6 ± 2.3 | 24.8 ± 0.67 | 5.3 ± 1.4 | 5.54 ± 0.41 | –
MPSLLVLTFSPCVLLGWALLAGGTGGGGVGGGGGGAGIGGGRQEREALPPQKIEVLVLLPQDDSYLFSLTRVRPAIEYALRSVEGNGTGRRLLPPGTRFQVAYEDSDCGNRALFSLVDRVAAARGAKPDLILGPVCEYAAAPVARLASHWDLPMLSAGALAAGFQHKDSEYSHLTRVAPAYAKMGEMMLALFRHHHWSRAALVYSDDKLERNCYFTLEGVHEVFQEEGLHTSIYSFDETKDLDLEDIVRNIQASERVVIMCASSDTIRSIMLVAHRHGMTSGDYAFFNIELFNSSSYGDGSWKRGDKHDFEAKQAYSSLQTVTLLRTVKPEFEKFSMEVKSSVEKQGLNMEDYVNMFVEGFHDAILLYVLALHEVLRAGYSKKDGGKIIQQTWNRTFEGIAGQVSIDANGDRYGDFSVIAMTDVEAGTQEVIGDYFGKEGRFEMRPNVKYPWGPLKLRIDENRIVEHTNSSPCKSSGGLEESAVTGIVVGALLGAGLLMAFYFFRKKYRITIERRTQQEESNLGKHRELREDSIRSHFSVA | 24.88 ± 0.14 | 24.5 ± 1 | 4.9 ± 0.22 | 6.51 ± 0.27 | –
